Results published in PMC7083227 (Immunity, 2020).

Biological target: the molecule itself
Experiment: non-reducing and reducing SDS-PAGE after surface biotinylation and anti-HA immunoprecipitation; cells surface biotinylated, lysed in 1% NP40 ± 10 mM iodoacetamide, HA-tagged protein precipitated with anti-HA resin, blot with streptavidin-HRP; with or without BTN3A1, with or without Zol

B1: HA-tagged BTN2A1 (surface biotinylation experiment) (natural protein, human, UniProt Q7KYR7 29-527, looked up)
chain: QFIVVGPTDPILATVGENTTLRCHLSPEKNAEDMEVRWFRSQFSPAVFVYKGGRERTEEQMEEYRGRTTFVSKDISRGSVALVIHNITAQENGTYRCYFQEGRSYDEAILHLVVAGLGSKPLISMRGHEDGGIRLECISRGWYPKPLTVWRDPYGGVAPALKEVSMPDADGLFMVTTAVIIRDKSVRNMSCSINNTLLGQKKESVIFIPESFMPSVSPCAVALPIIVVILMIPIAVCIYWINKLQKEKKILSGEKEFERETREIALKELEKERVQKEEELQVKEKLQEELRWRRTFLHAVDVVLDPDTAHPDLFLSEDRRSVRRCPFRHLGESVPDNPERFDSQPCVLGRESFASGKHYWEVEVENVIEWTVGVCRDSVERKGEVLLIPQNGFWTLEMHKGQYRAVSSPDRILPLKESLCRVGVFLDYEAGDVSFYNMRDRSHIYTCPRSAFSVPVRPFFRLGCEDSPIFICPALTGANGVTVPEEGLTLHRVGTHQSL
modifications: surface lysines biotinylated with EZ-Link Sulfo NHS-LC-biotin
notes: Butyrophilin-2A1 (BTN2A1), human; also called CHO-cell expressed BTN2A1; cell surface BTN2A1
- stoichiometry N: 2
